Patent US20220064275A1 (SCHOLAR ROCK, published 2022)

How the values were obtained:
[1] = target: T1, human LTBP3-proTGFβ1 complex (human, UniProt Q9NS15 866-1039); assay: BLI (Octet)
T1 construct: range 866-1039; also called hLTBP3-proTGFβ1; hLTBP3

[2] = target: T2, human GARP-proTGFβ1 complex (human, UniProt Q14392 20-627; P01137 30-390); assay: BLI (Octet)
T2 construct: also called hGARP-proTGFβ1; hGARP

[3] = target: T3, human LRRC33-proTGFβ1 complex (human, UniProt Q86YC3 19-650; P01137 30-390); assay: BLI (Octet)
T3 construct: also called hLRRC33-proTGFβ1; hLRRC33

[4] = target: T4, human LTBP1-proTGFβ1 complex (human, UniProt Q14766 873-1507); assay: BLI (Octet)
T4 construct: range 873-1507; biotinylated in Octet and MSD-SET; also called hLTBP1-proTGFβ1; hLTBP1
T4 sequence (Q14766 873-1507 limits assumed, chain 1 of 2): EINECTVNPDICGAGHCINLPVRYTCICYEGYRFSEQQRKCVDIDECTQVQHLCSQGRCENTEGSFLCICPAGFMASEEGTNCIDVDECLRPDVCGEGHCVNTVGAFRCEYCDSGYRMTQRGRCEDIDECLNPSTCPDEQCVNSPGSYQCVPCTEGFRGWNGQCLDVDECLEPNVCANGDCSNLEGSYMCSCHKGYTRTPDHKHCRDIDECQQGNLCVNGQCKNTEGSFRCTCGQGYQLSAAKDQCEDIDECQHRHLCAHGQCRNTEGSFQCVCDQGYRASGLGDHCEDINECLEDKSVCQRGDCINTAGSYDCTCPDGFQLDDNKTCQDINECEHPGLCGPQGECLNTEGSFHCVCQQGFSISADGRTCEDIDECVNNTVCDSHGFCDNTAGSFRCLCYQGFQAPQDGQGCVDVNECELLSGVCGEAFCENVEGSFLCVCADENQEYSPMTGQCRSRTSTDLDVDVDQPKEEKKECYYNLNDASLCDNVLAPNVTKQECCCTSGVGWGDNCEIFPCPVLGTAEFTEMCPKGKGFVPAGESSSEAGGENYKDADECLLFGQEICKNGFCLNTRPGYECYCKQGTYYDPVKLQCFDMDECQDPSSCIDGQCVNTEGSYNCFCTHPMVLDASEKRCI
T4 sequence (chain, as listed by the source limits assumed, chain 2 of 2): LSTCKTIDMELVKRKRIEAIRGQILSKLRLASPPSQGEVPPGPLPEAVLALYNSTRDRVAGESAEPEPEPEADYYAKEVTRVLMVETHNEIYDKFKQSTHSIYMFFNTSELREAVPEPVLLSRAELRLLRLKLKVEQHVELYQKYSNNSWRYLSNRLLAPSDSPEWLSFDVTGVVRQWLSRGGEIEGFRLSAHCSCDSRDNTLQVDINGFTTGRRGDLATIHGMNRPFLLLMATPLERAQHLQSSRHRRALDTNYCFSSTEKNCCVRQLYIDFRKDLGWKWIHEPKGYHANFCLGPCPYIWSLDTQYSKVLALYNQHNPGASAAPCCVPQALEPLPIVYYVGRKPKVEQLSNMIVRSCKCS

[5] = target: hLTBP1-proTGFβ1 complex made by transfected cells (cell-based potency assay) (human, UniProt Q14766 347-1721; P01137 30-390); assay: cell-based or functional assay
hLTBP1-proTGFβ1 complex made by transfected cells (cell-based potency assay), sequence (Q14766 347-1721, chain 1 of 2): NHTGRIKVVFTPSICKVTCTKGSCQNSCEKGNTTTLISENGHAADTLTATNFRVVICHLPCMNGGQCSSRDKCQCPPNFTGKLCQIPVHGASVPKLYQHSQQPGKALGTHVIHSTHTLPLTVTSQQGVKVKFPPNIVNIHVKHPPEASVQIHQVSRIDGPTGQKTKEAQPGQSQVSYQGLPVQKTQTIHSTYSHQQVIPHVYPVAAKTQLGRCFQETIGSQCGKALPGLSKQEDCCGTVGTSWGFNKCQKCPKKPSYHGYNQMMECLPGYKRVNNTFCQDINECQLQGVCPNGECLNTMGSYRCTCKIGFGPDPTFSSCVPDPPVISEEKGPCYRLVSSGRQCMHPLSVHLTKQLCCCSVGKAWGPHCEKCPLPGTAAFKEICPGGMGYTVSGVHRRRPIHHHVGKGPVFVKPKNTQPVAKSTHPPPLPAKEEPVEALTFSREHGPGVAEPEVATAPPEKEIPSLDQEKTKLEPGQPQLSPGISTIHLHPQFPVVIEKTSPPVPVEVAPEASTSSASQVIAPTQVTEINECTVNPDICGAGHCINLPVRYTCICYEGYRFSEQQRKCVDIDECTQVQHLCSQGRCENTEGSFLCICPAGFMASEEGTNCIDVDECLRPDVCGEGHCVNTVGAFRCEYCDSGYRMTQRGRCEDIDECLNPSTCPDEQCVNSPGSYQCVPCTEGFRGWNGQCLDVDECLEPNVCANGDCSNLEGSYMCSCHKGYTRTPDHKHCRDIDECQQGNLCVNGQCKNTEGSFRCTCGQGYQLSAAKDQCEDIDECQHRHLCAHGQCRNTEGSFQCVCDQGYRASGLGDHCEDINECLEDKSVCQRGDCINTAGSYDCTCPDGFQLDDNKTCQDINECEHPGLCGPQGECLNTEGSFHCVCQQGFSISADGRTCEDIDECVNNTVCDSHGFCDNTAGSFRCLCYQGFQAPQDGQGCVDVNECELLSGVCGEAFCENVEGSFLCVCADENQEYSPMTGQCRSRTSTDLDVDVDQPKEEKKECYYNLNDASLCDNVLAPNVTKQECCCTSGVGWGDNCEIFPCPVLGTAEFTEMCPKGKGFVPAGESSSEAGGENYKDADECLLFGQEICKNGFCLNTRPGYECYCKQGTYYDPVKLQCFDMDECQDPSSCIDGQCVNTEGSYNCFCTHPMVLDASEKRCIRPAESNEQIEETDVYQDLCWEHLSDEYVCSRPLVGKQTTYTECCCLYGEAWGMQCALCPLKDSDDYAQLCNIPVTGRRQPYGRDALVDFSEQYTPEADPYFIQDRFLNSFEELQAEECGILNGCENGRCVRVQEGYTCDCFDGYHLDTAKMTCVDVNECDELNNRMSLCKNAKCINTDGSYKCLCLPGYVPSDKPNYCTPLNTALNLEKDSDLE
hLTBP1-proTGFβ1 complex made by transfected cells (cell-based potency assay), sequence (P01137 30-390, chain 2 of 2): as the sequence (chain, as listed by the source limits assumed, chain 2 of 2) above

[6] = target: hLRRC33-proTGFβ1 complex on cells (human, UniProt Q86YC3 19-692; P01137 30-390); assay: cell-based or functional assay
hLRRC33-proTGFβ1 complex on cells, sequence (Q86YC3 19-692 limits assumed, chain 1 of 2): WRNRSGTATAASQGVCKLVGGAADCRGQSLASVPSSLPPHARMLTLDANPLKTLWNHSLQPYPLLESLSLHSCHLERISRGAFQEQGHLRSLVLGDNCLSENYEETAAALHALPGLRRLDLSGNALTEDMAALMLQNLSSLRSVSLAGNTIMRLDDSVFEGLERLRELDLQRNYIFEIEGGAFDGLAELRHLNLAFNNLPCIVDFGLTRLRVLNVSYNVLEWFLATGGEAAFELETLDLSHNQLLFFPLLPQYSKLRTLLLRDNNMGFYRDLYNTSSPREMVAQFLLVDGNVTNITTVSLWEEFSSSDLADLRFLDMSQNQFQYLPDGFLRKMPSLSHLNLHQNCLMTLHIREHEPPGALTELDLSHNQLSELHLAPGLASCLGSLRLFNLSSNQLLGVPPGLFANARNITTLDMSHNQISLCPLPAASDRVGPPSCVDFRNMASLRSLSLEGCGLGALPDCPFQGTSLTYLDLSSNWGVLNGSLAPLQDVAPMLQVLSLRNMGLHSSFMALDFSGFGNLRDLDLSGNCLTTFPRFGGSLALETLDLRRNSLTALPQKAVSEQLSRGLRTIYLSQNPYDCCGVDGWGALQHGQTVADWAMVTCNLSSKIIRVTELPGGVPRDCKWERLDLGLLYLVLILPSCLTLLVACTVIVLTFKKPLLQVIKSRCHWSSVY
hLRRC33-proTGFβ1 complex on cells, sequence (P01137 30-390 limits assumed, chain 2 of 2): as the sequence (chain, as listed by the source limits assumed, chain 2 of 2) above

[7] = target: hGARP-proTGFβ1 complex on cells (human, UniProt Q14392 20-662; P01137 30-390); assay: cell-based or functional assay
[8] = target: hLTBP3-proTGFβ1 complex made by transfected cells (cell-based potency assay) (human, UniProt Q9NS15 44-1303; P01137 30-390); assay: cell-based or functional assay
hLTBP3-proTGFβ1 complex made by transfected cells (cell-based potency assay), sequence (Q9NS15 44-1303, chain 1 of 2): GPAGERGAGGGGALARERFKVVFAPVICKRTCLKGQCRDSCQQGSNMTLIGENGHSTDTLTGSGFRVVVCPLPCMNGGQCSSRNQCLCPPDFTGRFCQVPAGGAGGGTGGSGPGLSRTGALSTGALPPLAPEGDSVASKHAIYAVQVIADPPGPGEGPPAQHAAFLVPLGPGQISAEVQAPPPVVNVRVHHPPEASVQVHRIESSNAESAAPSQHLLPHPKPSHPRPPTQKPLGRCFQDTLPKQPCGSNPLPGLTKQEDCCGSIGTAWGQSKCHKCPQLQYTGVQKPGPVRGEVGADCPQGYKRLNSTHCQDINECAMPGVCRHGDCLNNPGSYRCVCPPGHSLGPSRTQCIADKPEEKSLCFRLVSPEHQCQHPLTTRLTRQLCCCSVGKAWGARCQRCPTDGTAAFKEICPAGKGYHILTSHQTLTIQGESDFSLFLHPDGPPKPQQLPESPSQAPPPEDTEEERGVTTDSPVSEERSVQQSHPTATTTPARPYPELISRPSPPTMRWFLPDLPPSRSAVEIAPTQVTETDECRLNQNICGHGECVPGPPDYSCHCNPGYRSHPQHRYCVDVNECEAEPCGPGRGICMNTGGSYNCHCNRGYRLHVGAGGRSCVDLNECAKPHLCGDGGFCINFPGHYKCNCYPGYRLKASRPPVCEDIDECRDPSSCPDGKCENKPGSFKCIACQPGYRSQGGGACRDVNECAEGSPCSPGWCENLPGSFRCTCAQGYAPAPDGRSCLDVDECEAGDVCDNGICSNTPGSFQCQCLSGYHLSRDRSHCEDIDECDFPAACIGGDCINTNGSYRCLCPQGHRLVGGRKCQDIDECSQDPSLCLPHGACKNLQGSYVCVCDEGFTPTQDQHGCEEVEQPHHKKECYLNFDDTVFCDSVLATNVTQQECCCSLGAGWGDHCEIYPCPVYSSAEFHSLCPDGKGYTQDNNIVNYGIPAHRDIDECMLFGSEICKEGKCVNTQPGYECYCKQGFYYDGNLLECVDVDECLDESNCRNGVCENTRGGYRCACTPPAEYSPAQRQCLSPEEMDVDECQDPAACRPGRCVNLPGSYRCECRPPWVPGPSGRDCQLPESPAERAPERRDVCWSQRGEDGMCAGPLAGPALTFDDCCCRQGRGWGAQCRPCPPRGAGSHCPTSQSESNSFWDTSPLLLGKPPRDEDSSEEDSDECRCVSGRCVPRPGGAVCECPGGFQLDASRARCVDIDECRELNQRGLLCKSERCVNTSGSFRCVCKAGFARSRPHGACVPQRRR
hLTBP3-proTGFβ1 complex made by transfected cells (cell-based potency assay), sequence (P01137 30-390, chain 2 of 2): as the sequence (chain, as listed by the source limits assumed, chain 2 of 2) above

T1 sequence (Q9NS15 866-1039 limits assumed, chain 1 of 2): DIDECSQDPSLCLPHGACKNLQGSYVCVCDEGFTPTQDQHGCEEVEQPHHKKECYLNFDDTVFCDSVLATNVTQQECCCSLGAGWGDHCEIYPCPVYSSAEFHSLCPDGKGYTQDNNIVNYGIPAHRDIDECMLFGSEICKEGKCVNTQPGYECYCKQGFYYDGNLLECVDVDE
T1 sequence (chain, as listed by the source limits assumed, chain 2 of 2): as the sequence (chain, as listed by the source limits assumed, chain 2 of 2) above

Row | Kd [1] | Kd [2] | Kd [3] | Kd [4] | IC50, reporter cell assay of TGFβ1 activation [5] | IC50, reporter cell assay of TGFβ1 activation [6] | IC50, reporter cell assay of TGFβ1 activation [7] | IC50, reporter cell assay of TGFβ1 activation [8] | Binder
1 | 0.132 nM | 4.16 nM | 0.631 nM | 0.181 nM | – | – | – | – | Ab16 (antibody, V domains shown) VH: EVQLLESGGGLVQPGGSLRLSCAASGFTFSNYAMSWVRQAPGKGLEWVSAISGSGFTTYYADSVKGRFTISRDNSKNTLYLQMNSLRAEDTAVYYCARVSSGHWDFDYWGQGTLVTVSS VL: DIQLTQSPSSLSASVGDRVTITCRASQSISSYLNWYQQKPGKAPKLLIYAASNLQSGVPSRFSGSGSGTDFTLTISSLQPEDFATYYCQQTYTVPLTFGGGTKVEIK
2 | 0.284 nM | 15.5 nM | 1.3 nM | 0.348 nM | – | – | – | – | Ab9 (antibody, V domains shown) VH: QVQLVESGGGVVQPGGSLRLSCAASGFTFSSFAMTWVRQAPGKGLEWVSAISGSGAATYFADSVKGRFTISRDNSKNTLYLQMNSLRAEDTAVYYCARVSSGHWDFDYWGQGTLVTVSS VL: not shown
3 | 0.415 nM | 12.8 nM | 1.42 nM | 0.353 nM | – | – | – | – | Ab36 (antibody, V domains shown) VH: EVQLLESGGGLVQPGGSLRLSCAASGFTFRNYAMSWVRQAPGKGLEWVSSISGSGGATYYADSVKGRFTISRDNSKNTLYLQMNSLRAEDTAVYYCARVSSGHWDLDYWGQGTLVTVSS VL: not shown
4 | 0.319 nM | 10.2 nM | 1.06 nM | 0.262 nM | – | – | – | – | Ab10 (antibody, V domains shown) VH: EVQLLESGGGLVQPGGSLRLSCAASGFTFRNYAMSWVRQAPGKGLEWVSSISGSGGATYYADSVKGRFTISRDNSKNTLYLQMNSLRAEDTAVYYCARVSSGHWDFDYWGQGTLVTVSS VL: not shown
5 | 0.302 nM | 15.4 nM | 10 nM | 0.329 nM | – | – | – | – | Ab8 (antibody, V domains shown) VH: QVQLVESGGGVVQPGRSLRLSCAASGFTFSDYAMVWVRQAPGKGLEWVSAISGSGFTTYYADSVKGRFTISRDNSKNTLYLQMNSLRAEDTAVYYCARVSSGHWDFDYWGQGTLVTVSS VL: not shown
6 | 0.249 nM | 10 nM | 1.4 nM | 0.276 nM | – | – | – | – | Ab13 (antibody, V domains shown) VH: EVQLLESGGGLVQPGGSLRLSCAASGFTFADYAMTWVRQAPGKGLEWVSAISSFASAIYYADSVKGRFTISRDNSKNTLYLQMNSLRAEDTAVYYCARVSSGHWDFDYWGQGTLVTVSS VL: DIQMTQSPSSLSASVGDRVTITCRASQSISSYLNWYQQKPGKAPKLLIYAASSLQSGVPSRFSGSGSGTDFTLTISSLQPEDFATYYCQQVYDPPLTFGGGTKVEIK
7 | – | – | – | – | 14.5 nM | 5.37 nM | 3.71 nM | 2.71 nM | Ab1 (antibody, V domains shown) VH: EVQLLESGGGLVQPGGSLRLSCAASGFTFRNYAMSWVRQAPGKGLEWVSSISGSGGATYYADSVKGRFTISRDNSKNTLYLQMNSLRAEDTAVYYCARVSSGHWDFDYWGQGTLVTVSS VL: DIQLTQSPSSLSASVGDRVTITCQASQDISNFLNWYQQKPGKAPKLLIYDASNLETGVPSRFSGSGSGTDFTFTISSLQPEDIATYYCQQVFNPPLTFGGGTKVEIK
8 | 0.417 nM | 18 nM | 10.3 nM | 0.487 nM | – | – | – | – | Ab7 (antibody, V domains shown) VH: EVQLLESGGGLVQPGGSLRLSCAASGFTFADYAMTWVRQAPGKGLEWVSAISGTGAHTYYADSVKGRFTISRDNSKNTLYLQMNSLRAEDTAVYYCARVSSGHWDFDYWGQGTLVTVSS VL: not shown
9 | 0.208 nM | 8.62 nM | 0.658 nM | 0.174 nM | – | – | – | – | Ab17 (antibody, V domains shown) VH: EVQLLESGGGVVQPGGSLRLSCAASGFTFSSFAMTWVRQAPGKGLEWVSAISGSGAATYFADSVKGRFTISRDNSKNTLYLQMNSLRAEDTAVYYCARVSSGHWDFDYWGQGTLVTVSS VL: DIQLTQSPSSLSASVGDRVTITCRASQSISSYLNWYQQKPGKAPKLLIYAASNLQSGVPSRFSGSGSGTDFTLTISSLQPEDFATYYCQQTYTVPLTFGGGTKVEIK
10 | 0.257 nM | 11.5 nM | 1.02 nM | 0.312 nM | – | – | – | – | Ab18 (antibody, V domains shown) VH: QVQLVESGGGVVQPGRSLRLSCAASGFTFSDYAMVWVRQAPGKGLEWVSAISGSGAATYFADSVKGRFTISRDNSKNTLYLQMNSLRAEDTAVYYCATVSSGHWDFDYWGQGTLVTVSS VL: DIQLTQSPSSLSASVGDRVTITCRASQSISSYLNWYQQKPGKAPKLLIYAASNLQSGVPSRFSGSGSGTDFTLTISSLQPEDFATYYCQQTYTVPLTFGGGTKVEIK
11 | 0.168 nM | 7.01 nM | 0.702 nM | 0.15 nM | – | – | – | – | Ab15 (antibody, V domains shown) VH: EVQLVESGGGVVQPGRSLRLSCAASGFTFSDYAMVWVRQAPGKGLEWVSAISGSGFTTYYADSVKGRFTISRDNSKNTLYLQMNSLRAEDTAVYYCARVSSGHWDFDYWGQGTLVTVSS VL: DIQLTQSPSSLSASVGDRVTITCRASQSISSYLNWYQQKPGKAPKLLIYAASNLQSGVPSRFSGSGSGTDFTLTISSLQPEDFATYYCQQTYTVPLTFGGGTKVEIK
12 | 0.346 nM | 10.5 nM | 1.34 nM | 0.336 nM | – | – | – | – | Ab14 (antibody, V domains shown) VH: EVQLLESGGGLVQPGGSLRLSCAASGFTFSAYAMTWVRQAPGKGLEWVSAISGTGGSTYYADSVKGRFTISRDNSKNTLYLQMNSLRAEDTAVYYCARVSSGHWDFDYWGQGTLVTVSS VL: DIQMTQSPSSLSASVGDRVTITCRASQSISSYLNWYQQKPGKAPKLLIYAASSLQSGVPSRFSGSGSGTDFTLTISSLQPEDFATYYCQQVYDPPLTFGGGTKVEIK
13 | – | – | – | – | 1.29 nM | 0.616 nM | 0.14 nM | 1 nM | Ab5 (antibody, V domains shown) VH: EVQLVESGGGLVQPGGSLRLSCAASGFTFSSFSMDWVRQAPGKGLEWVSYISPDASTIYYADSVKGRFTISRDNAKNSLYLQMNSLRAEDTAVYYCARGVLDYGDMLDPWGQGTLVTVSS VL: DIQMTQSPSSLSASVGDRVTITCQASQDITNYLNWYQQKPGKAPKLLIYDASNLETGVPSRFSGSGSGTDFTFTISSLQPEDIATYYCQQADNHPPWTFGGGTKVEIK
14 | 0.268 nM | 0.833 nM | 0.455 nM | 0.225 nM | 1.61 nM | 0.596 nM | 0.401 nM | 0.765 nM | Ab21 (antibody, V domains shown) VH: EVQLVESGGGLVQPGGSLRLSCAASGFTFSSFSMDWVRQAPGKGLEWVSYISPDASTIYYADSVKGRFTISRDNAKNSLYLQMNSLRAEDTAVYYCARGVLDYGDMLDPWGQGTLVTVSS VL: DIQMTQSPSSLSASVGDRVTITCQASQDITNYLNWYQQKPGKAPKLLIYDASNLETGVPSRFSGSGSGTDFTFTISSLQPEDIATYYCQQADNHPPWTFGGGTKVEIK
15 | 0.238 nM | 0.424 nM | 0.299 nM | 0.178 nM | – | – | – | – | Ab27 (antibody, V domains shown) VH: EVQLVESGGGLVQPGGSLRLSCAASGFTFSFYAMNWVRQAPGKGLEWVSYISPDASTIYYADSVKGRFTISRDNAKNSLYLQMNSLRAEDTAVYYCARGVLDYGDMLDPWGQGTLVTVSS VL: DIQMTQSPSSLSASVGDRVTITCQASQDITNYLNWYQQKPGKAPKLLIYDASNLETGVPSRFSGSGSGTDFTFTISSLQPEDIATYYCQQADNHPPWTFGGGTKVEIK
16 | 0.316 nM | 0.797 nM | 0.409 nM | 0.34 nM | – | – | – | – | Ab28 (antibody, V domains shown) VH: EVQLVESGGGLVQPGGSLRLSCAASGFTFSSFSMDWVRQAPGKGLEWVSYISPDASTIYYADSVKGRFTISRDNAKNSLYLQMNSLRAEDTAVYYCVRGVLDYGDMLDPWGQGTLVTVSS VL: DIQMTQSPSSLSASVGDRVTITCQASQDITNYLNWYQQKPGKAPKLLIYDASNLETGVPSRFSGSGSGTDFTFTISSLQPEDIATYYCQQADNHPPWTFGGGTKVEIK
17 | 0.468 nM | 1.34 nM | 0.455 nM | 0.417 nM | 0.835 nM | 0.579 nM | 0.264 nM | 0.879 nM | Ab23 (antibody, V domains shown) VH: EVQLVESGGGLVQPGGSLRLSCAASGFTFSSFSMNWVRQAPGKGLEWVSYISPSADTIYYADSVKGRFTISRDNAKNTLYLQMNSLRAEDTAVYYCARGVLDYGDMLDPWGQGTLVTVSS VL: DIQMTQSPSSLSASVGDRVTITCQASQDITNYLNWYQQKPGKAPKLLIYDASNLETGVPSRFSGSGSGTDFTFTISSLQPEDIATYYCQQADNHPPWTFGGGTKVEIK
